T1: AR (Homo sapiens, UniProt P10275, DEL79-80/DUP473-473)
T1 sequence (P10275 with tags, fused parts or gaps DEL79-80/DUP473-473): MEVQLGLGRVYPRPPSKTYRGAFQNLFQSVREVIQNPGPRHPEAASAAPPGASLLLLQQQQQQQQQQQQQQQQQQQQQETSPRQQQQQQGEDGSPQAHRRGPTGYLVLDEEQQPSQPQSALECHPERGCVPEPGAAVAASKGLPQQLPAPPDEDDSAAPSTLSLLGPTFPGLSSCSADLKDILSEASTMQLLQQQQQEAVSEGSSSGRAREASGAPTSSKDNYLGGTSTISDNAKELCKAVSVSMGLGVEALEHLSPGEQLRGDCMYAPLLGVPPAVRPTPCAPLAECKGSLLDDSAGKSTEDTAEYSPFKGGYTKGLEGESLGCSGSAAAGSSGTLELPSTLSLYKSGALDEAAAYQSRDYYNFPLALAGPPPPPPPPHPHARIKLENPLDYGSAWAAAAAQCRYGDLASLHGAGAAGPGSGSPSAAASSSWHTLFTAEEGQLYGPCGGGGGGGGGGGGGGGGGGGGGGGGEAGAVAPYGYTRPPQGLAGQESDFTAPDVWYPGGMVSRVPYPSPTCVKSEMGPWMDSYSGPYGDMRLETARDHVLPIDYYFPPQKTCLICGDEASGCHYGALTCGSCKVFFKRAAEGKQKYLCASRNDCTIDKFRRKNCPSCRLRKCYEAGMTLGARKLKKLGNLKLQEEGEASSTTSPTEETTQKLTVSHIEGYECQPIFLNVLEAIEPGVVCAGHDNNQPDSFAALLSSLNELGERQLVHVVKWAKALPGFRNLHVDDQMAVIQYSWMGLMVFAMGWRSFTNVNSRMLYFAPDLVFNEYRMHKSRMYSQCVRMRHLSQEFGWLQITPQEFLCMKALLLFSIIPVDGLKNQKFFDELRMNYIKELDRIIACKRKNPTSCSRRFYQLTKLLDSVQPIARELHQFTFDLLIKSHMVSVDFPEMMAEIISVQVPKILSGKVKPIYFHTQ


Target: T1, AR
Test: AR-mediated transactivation reporter assay (MMTV / PSA reporters)
Assay type: cell-based
Design: A full-length AR(pSG5AR) was co-transfected with GAL4-TR4E; expressed in transfected cells; host or cells: COS, H1299, CHO, DU145, PC-3
Settings: for Transactivation by the AR receptor: similar procedures, no details given; for Activity AR (effect of regulator on transcription activity): Table 5
From the text: Cells were routinely maintained in DMEM with 10% heat-inactivated fetal bovine serum. The cells were transfected using a modified calcium phosphate precipitation method, Mizokami, & Chang, J: Biol. Chem. 269,25655-25659 (1994), or SuperFect (Qiagen). To normalize the transfection efficiency, the (3-galactosidase expression ver and pRL-TK were co-transfected in CAT assay and in Dual-luciferase reporter assay system (Promega), respectively.
Like TR4, AR itself acts as a transcription factor to activate many androgen target genes. 500 ng of MMTV-Luc (FIG. 4A), or PSA-Luc (FIG. 4B), were co-transfected with 40 ng pCMV-AR (lane 2-3) with increasing amounts of pCMX-TR4 (as indicated in FIG. 4). […] After 16-18 hours incubation, cells were harvested for Dual-rnciferase reporter assay. As expected, in COS, H1299, and CHO cells, AR activated MMTV luciferase activity in a DHT-dependent manner (FIG. 4A, lanes 2 and 3), which could then be repressed by the addition of TR4 (lanes 6 to 8). […] Similar suppression effects also occurred when the MMTV-ruciferase reporter was replaced with the PSA-Iuciferase reporter, another AR target gene (FIG. 4B).
As GR and PR can also induce MMTV—luciferase reporter, Beato, M., Ce//56, 335-344 (1989), determining if TR4 could also repress OR- or PR-mediated transactivation was analyzed. Three μg of MMTV-Luc was co-transfected with 4 μg of pCMX-TR4 in the presence of 1 μg of pSG5AR, pSG5GR, or pSG5PR by modified calcium-phosphate method. […] Dual-luciferase reporter assays were performed. PRL-TK was used to normalize the transfection efficiency. […] Similar results were observed when the same experiments of AR-mediated transactivation were repeated in DU145 cells.
Human prostate cancer PC-3 cells were maintained in DMEM containing penicillin (25 units/ml), streptomycin ([…]), and 5% FCS. Human prostate cancer LNCaP cells were maintained in RPMI 1640 containing penicillin (25 units/ml), streptomycin ([…]), and 10% FCS. PC-3 cell were transfected using the calcium phosphate precipitation method as described previously [Mu X. M. et al. (1998) Endocrine 9:27-32], and LNCaP cells were transfected by using Superfect™ according to the manufacturer's procedures (Qiagen, Chatsworth, Calif.). CAT assay was performed as described previously [Lee Y. et al. (1999) Proc Natl Acad Sci USA 96:14724-14729], and is herein incorporated by reference at least for material related to the CAT assays].

Row | AR-activated MMTV luciferase activity (similar with PSA-luciferase) (COS, H1299 and CHO cells, 10 nM DHT, increasing pCMX-TR4) | AR-mediated MMTV-luciferase transactivation (H1299 cells (similar in DU145), 4 μg pCMX-TR4, 10 nM DHT) | Molecule | Transactivation by the AR receptor | Activity AR (effect of regulator on transcription activity) | MMTV-CAT and PSA-CAT activity (PC-3 cells, 10 nM DHT, 2, 4 and 7 μg pCMV-TR2) | AR-mediated transcription (MMTV-Luc) (PC-3 cells, Example 2)
1 | – | – | RXR: retinoid X receptor, another member of the steroid receptor superfamily | suppress | – | – | –
2 | repressed | repress | TR4: human testicular orphan nuclear receptor 4, SEQ ID NO:16; expressed from plasmid or in vitro translated (protein) MTSPSPRIQIISTDSAVASPQRIQGSEPASGPLSVFTSLNKEKIVTDQQTGQKIQIVTAVDASGSPKQQFILTSPDGAGTGKVILASPETSSAKQLIFTTSDNLVPGRIQIVTDSASVERLLGKTDVQRPQVVEYCVVCGDKASGRHYGAVSCEGCKGFFKRSVRKNLTYSCRSSQDCIINKHHRNRCQFCRLKKCLEMGMKMESVQSERKPFDVQREKPSNCAASTEKIYIRKDLRSPLIATPTFVADKDGARQTGLLDPGMLVNIQQPLIREDGTVLLATDSKAETSQGALGTLANVVTSLANLSESLNNGDTSEIQPEDQSASEITRAFDTLAKALNTTDSSSSPSLADGIDTSGGGSIHVISRDQSTPIIEVEGPLLSDTHVTFKLTMPSPMPEYLNVHYICESASRLLFLSMHRARSIPAFQGLGQDCNTSLVRACWNELFTLGLAQCAQVMSLSTILAAIVNHLQNSIQEDKLSGDRIKQVMEHIWKLQEFCNSMANWDIDGYEYAYLKAIVLFSPDHPGLTSTSQIEKFQEKAQMELQDYVQKTYSEDTYRLARILVRLPALRLMSSNITEELFFTGLIGNVSIDSIIPYILKMETAEYNGQITGVSL | – | Down | – | –
3 | – | – | TR2: human testicular orphan nuclear receptor 2, 603 amino acids (protein, UniProt P13056 1-603, looked up, full-length, human testicular orphan nuclear receptor 2, 603 amino acids) MATIEEIAHQIIEQQMGEIVTEQQTGQKIQIVTALDHNTQGKQFILTNHDGSTPSKVILARQDSTPGKVFLTTPDAAGVNQLFFTTPDLSAQHLQLLTDNSPDQGPNKVFDLCVVCGDKASGRHYGAVTCEGCKGFFKRSIRKNLVYSCRGSKDCIINKHHRNRCQYCRLQRCIAFGMKQDSVQCERKPIEVSREKSSNCAASTEKIYIRKDLRSPLTATPTFVTDSESTRSTGLLDSGMFMNIHPSGVKTESAVLMTSDKAESCQGDLSTLANVVTSLANLGKTKDLSQNSNEMSMIESLSNDDTSLCEFQEMQTNGDVSRAFDTLAKALNPGESTACQSSVAGMEGSVHLITGDSSINYTEKEGPLLSDSHVAFRLTMPSPMPEYLNVHYIGESASRLLFLSMHWALSIPSFQALGQENSISLVKAYWNELFTLGLAQCWQVMNVATILATFVNCLHNSLQQDKMSTERRKLLMEHIFKLQEFCNSMVKLCIDGYEYAYLKAIVLFSPDHPSLENMEQIEKFQEKAYVEFQDYITKTYPDDTYRLSRLLLRLPALRLMNATITEELFFKGLIGNIRIDSVIPHILKMEPADYNSQIIGHSI | suppress | Down | strongly suppresses | suppress

From patent publication US20030235860A1, “Interactions between AR, ER, TR2, and TR4” (priority 1999, published 2003)
